Test results reported in FireProtDB (doi:10.1006/jmbi.2000.3776).

B1: Major outer membrane lipoprotein Lpp, P69776 (parent)
chain: MKATKLVLGAVILGSTLLAGCSSNAKIDQLSSDVQTLNAKVDQLSNDVNAMRSDVQAAKDDAARANQRLDNMATKYRK

Variants of: B1
Conditions: Escherichia coli (strain K12), pH 7, CD, structure 1EQ7, whole UniProt chain shown; for ddG of mutation (higher = less stable) / unfolding free energy: 4 °C, GdnHCl, PBS; for Tm / change of melting temperature, mutant - wild type (higher = more stable): Thermal, Sodium phosphate 50mM, NaCl 150mM

Variant | ddG of mutation (higher = less stable) [kcal/mol] | unfolding free energy [kcal/mol] | Tm [°C] | change of melting temperature, mutant - wild type (higher = more stable) [°C]
MKATKLVLGAVILGSTLLAGCSANAKIDQLSSDVQTLNAKVDQLSNDVNAMRSDVQAAKDDAARANQRLDNMATKYRK | 0.8 | 19.7 | 64 | -3
MKATKLVLGAVILGSTLLAGCSSNAKIDQLSSDVQTLNAKVDQLSNDVNAMRSDVQAAKDDAARANQRLDNMATKARK | 1.1 | 19.4 | 63 | -4
